Patent US7229788

Assays:
[1] = test system: SHEL (synthetic human elastin; recombinant human tropoelastin splice form)
[2] = test system: SHELδ26A (SHEL lacking the sequence of exon 26A)
[3] = test system: serine protease site peptide (SPS-peptide), N-AAKAQLRAAAGLGA-C
[4] = test system: GST-SHEL (glutathione S-transferase fusion of SHEL)
Sequence of GST-SHEL (glutathione S-transferase fusion of SHEL) (chain, as listed by the source): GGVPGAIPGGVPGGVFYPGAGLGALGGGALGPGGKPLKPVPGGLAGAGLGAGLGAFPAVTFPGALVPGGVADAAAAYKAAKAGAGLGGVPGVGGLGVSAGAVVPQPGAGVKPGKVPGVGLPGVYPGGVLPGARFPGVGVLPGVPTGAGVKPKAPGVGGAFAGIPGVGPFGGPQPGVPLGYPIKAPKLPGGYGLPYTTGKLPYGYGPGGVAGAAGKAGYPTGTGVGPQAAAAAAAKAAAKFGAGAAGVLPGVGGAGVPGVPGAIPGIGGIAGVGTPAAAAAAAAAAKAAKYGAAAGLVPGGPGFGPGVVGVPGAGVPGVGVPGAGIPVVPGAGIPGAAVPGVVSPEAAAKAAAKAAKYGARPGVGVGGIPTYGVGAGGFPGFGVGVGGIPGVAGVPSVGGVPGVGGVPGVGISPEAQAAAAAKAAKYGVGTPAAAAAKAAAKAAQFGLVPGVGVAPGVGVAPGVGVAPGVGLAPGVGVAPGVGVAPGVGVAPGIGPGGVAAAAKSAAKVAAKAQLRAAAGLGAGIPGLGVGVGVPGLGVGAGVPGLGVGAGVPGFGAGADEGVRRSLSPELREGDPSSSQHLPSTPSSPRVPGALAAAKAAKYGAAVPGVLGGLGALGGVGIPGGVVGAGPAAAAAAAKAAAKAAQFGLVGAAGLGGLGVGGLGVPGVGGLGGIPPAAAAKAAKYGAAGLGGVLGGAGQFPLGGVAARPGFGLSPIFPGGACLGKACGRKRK

Sequence of human plasma kallikrein (Sigma) (chain, as listed by the source): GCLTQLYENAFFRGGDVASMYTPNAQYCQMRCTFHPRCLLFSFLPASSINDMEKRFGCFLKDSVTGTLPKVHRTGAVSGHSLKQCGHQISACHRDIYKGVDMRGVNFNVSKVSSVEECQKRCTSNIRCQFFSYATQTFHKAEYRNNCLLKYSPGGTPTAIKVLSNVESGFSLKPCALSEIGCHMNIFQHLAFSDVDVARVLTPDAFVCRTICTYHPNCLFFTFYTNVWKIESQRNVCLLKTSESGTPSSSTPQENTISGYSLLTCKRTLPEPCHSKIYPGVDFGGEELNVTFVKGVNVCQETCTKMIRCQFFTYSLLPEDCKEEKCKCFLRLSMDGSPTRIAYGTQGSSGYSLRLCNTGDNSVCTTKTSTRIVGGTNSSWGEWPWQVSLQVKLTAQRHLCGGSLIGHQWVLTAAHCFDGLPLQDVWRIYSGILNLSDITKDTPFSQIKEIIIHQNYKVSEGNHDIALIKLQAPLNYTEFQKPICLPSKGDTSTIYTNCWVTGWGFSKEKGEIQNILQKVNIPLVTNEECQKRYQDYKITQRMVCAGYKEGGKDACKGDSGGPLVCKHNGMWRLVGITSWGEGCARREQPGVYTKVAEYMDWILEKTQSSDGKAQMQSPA
Sequence of SHELδ26A (SHEL lacking the sequence of exon 26A) (chain, as listed by the source mutant): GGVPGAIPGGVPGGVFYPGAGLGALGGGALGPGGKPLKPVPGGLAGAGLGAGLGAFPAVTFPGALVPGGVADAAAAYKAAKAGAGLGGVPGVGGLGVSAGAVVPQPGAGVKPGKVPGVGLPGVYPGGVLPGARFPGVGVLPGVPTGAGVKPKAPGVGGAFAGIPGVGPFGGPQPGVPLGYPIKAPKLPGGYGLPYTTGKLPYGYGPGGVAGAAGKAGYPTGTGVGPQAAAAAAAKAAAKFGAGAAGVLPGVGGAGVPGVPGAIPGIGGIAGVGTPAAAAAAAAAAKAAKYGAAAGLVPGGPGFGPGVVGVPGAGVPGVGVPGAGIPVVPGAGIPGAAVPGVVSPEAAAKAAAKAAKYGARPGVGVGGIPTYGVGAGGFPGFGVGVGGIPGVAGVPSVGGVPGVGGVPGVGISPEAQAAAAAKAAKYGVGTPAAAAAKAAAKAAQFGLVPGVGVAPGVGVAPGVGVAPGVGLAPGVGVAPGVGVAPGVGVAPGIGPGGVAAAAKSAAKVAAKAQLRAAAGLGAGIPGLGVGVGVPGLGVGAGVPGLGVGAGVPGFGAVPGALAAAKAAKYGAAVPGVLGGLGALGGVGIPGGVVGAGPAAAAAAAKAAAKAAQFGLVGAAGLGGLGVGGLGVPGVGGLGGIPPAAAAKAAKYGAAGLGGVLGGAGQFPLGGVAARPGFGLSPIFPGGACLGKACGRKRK
Sequence of SHEL (synthetic human elastin; recombinant human tropoelastin splice form) (chain, as listed by the source): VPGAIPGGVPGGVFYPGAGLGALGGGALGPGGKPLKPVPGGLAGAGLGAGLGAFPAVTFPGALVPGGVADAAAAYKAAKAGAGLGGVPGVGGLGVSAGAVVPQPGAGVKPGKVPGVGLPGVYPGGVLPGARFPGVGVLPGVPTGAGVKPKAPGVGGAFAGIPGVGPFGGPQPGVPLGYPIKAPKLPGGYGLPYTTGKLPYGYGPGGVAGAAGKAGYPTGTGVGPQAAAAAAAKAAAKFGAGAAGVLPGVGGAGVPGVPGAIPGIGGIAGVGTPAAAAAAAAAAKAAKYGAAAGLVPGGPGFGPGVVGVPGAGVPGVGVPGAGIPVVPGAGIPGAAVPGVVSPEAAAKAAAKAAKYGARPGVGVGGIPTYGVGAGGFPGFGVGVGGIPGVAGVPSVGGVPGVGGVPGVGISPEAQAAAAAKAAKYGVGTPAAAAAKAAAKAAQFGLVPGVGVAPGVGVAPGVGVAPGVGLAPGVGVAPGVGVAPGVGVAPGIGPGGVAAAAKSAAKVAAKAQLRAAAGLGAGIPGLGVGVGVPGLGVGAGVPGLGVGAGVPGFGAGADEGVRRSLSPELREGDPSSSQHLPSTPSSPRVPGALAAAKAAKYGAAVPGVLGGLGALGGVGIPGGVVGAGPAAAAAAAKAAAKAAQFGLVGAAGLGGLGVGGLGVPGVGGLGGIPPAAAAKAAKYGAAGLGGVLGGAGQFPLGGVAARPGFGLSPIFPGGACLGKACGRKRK

## human plasma kallikrein (Sigma)
[1]
  degradation of SHEL by human plasma kallikrein, SDS-PAGE: Three major fragments were identified by SDS-PAGE (FIG. 8) estimated to be 45, 22 and 18 kDa
[2]
  degradation of SHELδ26A by human plasma kallikrein, SDS-PAGE: The pattern of degradation of SHELδ26A was somewhat different, with the 22 and 18 kDa fragments missing and replaced by a 15 kDa fragment
[3]
  amount of full-length SHEL after kallikrein digestion with a 100:1 molar excess of SPS-peptide, SDS-PAGE and densitometry (also seen with SHELδ26A, not shown): more full-length SHEL was evident compared with controls using trypsin, plasmin, kallikrein and serum

## human thrombin (Sigma)
[4]
  cleavage of GST-SHEL by thrombin, SDS-PAGE: Thrombin is able to cleave GST-SHEL extensively and in a reproducible manner
[1]
  degradation of SHEL by thrombin, SDS-PAGE: four major fragments were identified by SDS-PAGE estimated at 45, 34, 22 and 13 kDa
[2]
  degradation of SHELδ26A by thrombin, SDS-PAGE: The patterns of degradation seen with SHELδ26A was slightly different with the 22 kDa fragment reduced in size to about 15 kDa
[3]
  amount of full-length SHEL after thrombin digestion with SPS-peptide, SDS-PAGE and densitometry: SPS-peptide also resulted in more full-length SHEL using thrombin and HLE but to a lesser extent
